Source: patent US9388243B2, “Method of target membrane protein depletion” (Samsung Electronics Co., Ltd., priority 2013, dated 2016)

Molecular target: T1, EGFR in MKN45 stomach cancer cells (Homo sapiens, UniProt P00533)
T1 construct: endogenous in cells; host or cells: MKN45 (JCRB)
Test: Confocal microscopy of EGFR internalization and degradation in MKN45 cells
Assay type: cell-based
Conditions: MKN45, 5 μg/ml each, 4 hrs, confocal images (FIGS. 5-7)
Procedure: Each antibody was used at a density of 5 μg/ml/well, whether individually or in combination. For control, the cells were treated with PBS only. The cells were immobilized onto the plates by treatment with 4% (v/v) formaldehyde for 15 min, washed three times with PBS, and then blocked with a blocking buffer (0.5% triton x-100 and 5% donkey serum) at room temperature for 1 hr. […] The cells were washed again three times with PBS, and incubated at room temperature for 1 hr with 100 μl of a 1:2000 dilution of a secondary antibody (A21433, Invitrogen). After being washed three times with PBS, the cells were counterstained with a DAPI-containing mounting medium (H-1200, Vector Lab), and examined by Confocal microscopy (Zeiss, LSM710).
Comparison was made of degradation efficiency between the bispecific antibody and a combination of the monospecific antibodies.

internalization into a cell and degradation of EGFR: induced by neither
B1: anti-EGFR ab: scFv-Fc antibody recognizing EGFR: SEQ ID NO: 109 and 111 variable domains fused to N-terminus of IgG2 Fc (antibody, V domains shown)
VH: QVQLVQSGAEVKKPGSSVKVSCKASGFTFTDYKIHWVRQAPGQGLEWMGYFNPNSGYSTYAQKFQGRVTITADKSTSTAYMELSSLRSEDTAVYYCARLSPGGYYVMDAWGQGTTVTVSS
VL: DIQMTQSPSSLSASVGDRVTITCRASQGINNYLNWYQQKPGKAPKRLIYNTNNLQTGVPSRFSGSGSGTEFTLTISSLQPEDFATYYCLQHNSFPTFGQGTKLEIKRT
modifications: IgG2 Fc without entry; linker; Synthetic (heavy-chain variable region of anti-EGFR antibody); Synthetic (light-chain variable region of anti-EGFR antibody)
internalization into a cell and degradation of EGFR (listed as anti-EGFR antibody): did not provoke the degradation of EGFR at all
